± gives the standard error. Fewer inactive variants are shown than the library holds.
B1: glmS ribozyme (parent)
chain: AUAAAAGCGCCAGAACUACAGAAAUGUAGUUGACGAGGAGGAGGUUUAUCGAAUUUUCGGCGGAUGCCUCCAAA

What was measured:
Settings in all cases: with glucosamine-6-phosphate
glucosamine-6-phosphate [1] = variants of: B1; assay: self-cleavage kobs at 640 uM GlcN6P; higher = faster cleavage; RNA array
In short: (§1)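 Sequenced MiSeq chips were the platform: E. coli RNA polymerase transcribed barcoded ribozyme variants on them in situ, and a hybridised Cy3 probe tracked these at 37 °C. After glucosamine-6-phosphate (40 μM to 10 mM) in HEPES/KCl/Mg(OAc)2 buffer was flowed in, tiles were imaged over ~14 h. Signals normalised to baseline and to non-cleaving reference variants were reduced to per-tile medians and fit to one- or two-exponential decays to obtain kobs. kcat and KM were derived through weighted Michaelis–Menten fits across concentrations.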

glucosamine-6-phosphate [2] = variants of: B1; assay: self-cleavage kobs at 2500 uM GlcN6P; higher = faster cleavage; RNA array
In short: as §1

glucosamine-6-phosphate [3] = variants of: B1; assay: self-cleavage kobs at 10000 uM GlcN6P; higher = faster cleavage; RNA array
In short: as §1

Variant	self-cleavage kobs at 640 uM GlcN6P (glucosamine-6-phosphate [1])	self-cleavage kobs at 2500 uM GlcN6P (glucosamine-6-phosphate [2])	self-cleavage kobs at 10000 uM GlcN6P (glucosamine-6-phosphate [3])
A15C U54C G66U C70U	7.59e-05 ± 1.8e-05 s⁻¹	0.000351 ± 9.2e-05 s⁻¹	
A15G A39C A53U	0.000793 ± 0.00012 s⁻¹	0.00236 ± 0.00069 s⁻¹	
A14U A42C A64C	< 1e-05 s⁻¹	< 1e-05 s⁻¹	< 1e-05 s⁻¹
A12C G29A G37A	0.000302 ± 8.2e-05 s⁻¹	0.000142 ± 5.2e-05 s⁻¹	
A12G A42G C61U G63U	< 1e-05 s⁻¹		
A12G U46G C58G G63U U69A	0.000158 ± 6.3e-05 s⁻¹		
A14U U47C C58G C68G	5.55e-05 ± 1.6e-05 s⁻¹	0.000171 ± 4e-05 s⁻¹	
A14G A36U C68A	< 1e-05 s⁻¹	0.00425 ± 0.0019 s⁻¹	
C11U C16U C71G	6.83e-05 ± 1.8e-05 s⁻¹	0.000127 ± 3.7e-05 s⁻¹	
A12C C34A U69C	< 1e-05 s⁻¹		
G13A A52U C70G	< 1e-05 s⁻¹		
G13U A14U G44C A52G C58G	< 1e-05 s⁻¹		
A12U C16G G32A	9.86e-05 ± 2.9e-05 s⁻¹	0.000137 ± 4.8e-05 s⁻¹	
A14U A33G G38A	< 1e-05 s⁻¹	< 1e-05 s⁻¹	
C11G C58A C68A	0.000165 ± 6.6e-05 s⁻¹		
A15U C16A A52U A53C	< 1e-05 s⁻¹	< 1e-05 s⁻¹	
A12C U30C U57G U65C	< 1e-05 s⁻¹		

Variant	self-cleavage kobs at 640 uM GlcN6P (glucosamine-6-phosphate [1])	self-cleavage kobs at 2500 uM GlcN6P (glucosamine-6-phosphate [2])	self-cleavage kobs at 10000 uM GlcN6P (glucosamine-6-phosphate [3])
A14G C16U U45A G51U C61G	< 1e-05 s⁻¹		
A15C A36G U55A	< 1e-05 s⁻¹	< 1e-05 s⁻¹	
A15U A39C A42U	< 1e-05 s⁻¹		
G13A A15C G60U	< 1e-05 s⁻¹		
G13C C16U A36G U69C	< 1e-05 s⁻¹		
A12G U30A A52C U54C	< 1e-05 s⁻¹	< 1e-05 s⁻¹	
A12C U49G C67U	5e-05 ± 1.4e-05 s⁻¹	7.89e-05 ± 1.5e-05 s⁻¹	
A15C G51A G59C	< 1e-05 s⁻¹	< 1e-05 s⁻¹	
A15G C16G C50G U54C	0.00183 ± 0.00059 s⁻¹		
G13C C34G G35C A52C	< 1e-05 s⁻¹	< 1e-05 s⁻¹	
C11U G41C C67U	< 1e-05 s⁻¹		
C11U G38C C50U A52C	< 1e-05 s⁻¹		
A12U G32U G41A U56A A64U U65A	< 1e-05 s⁻¹	< 1e-05 s⁻¹	
A12G A36C U45C G60U	< 1e-05 s⁻¹		
A15C G44C C50U	< 1e-05 s⁻¹	< 1e-05 s⁻¹	
G13C G29U C71G	< 1e-05 s⁻¹		
A12U G44C A48U C58G C67G C71U	< 1e-05 s⁻¹	< 1e-05 s⁻¹	

Source: the supplement of paper PMC7125110
